Results taken from paper PMC8249414, “Structural basis of ALC1/CHD1L autoinhibition and the mechanism of activation by the nucleosome” (Nature Communications, 2021).

B1: ALC1 R857Q mutant (enzyme)
chain: MERAGATSRGGQAPGFLLRLHTEGRAEAARVQEQDLRQWGLTGIHLRSYQLEGVNWLAQRFHCQNGCILGDEMGLGKTCQTIALFIYLAGRLNDEGPFLILCPLSVLSNWKEEMQRFAPGLSCVTYAGDKEERACLQQDLKQESRFHVLLTTYEICLKDASFLKSFPWSVLVVDEAHRLKNQSSLLHKTLSEFSVVFSLLLTGTPIQNSLQELYSLLSFVEPDLFSKEEVGDFIQRYQDIEKESESASELHKLLQPFLLRRVKAEVATELPKKTEVVIYHGMSALQKKYYKAILMKDLDAFENETAKKVKLQNILSQLRKCVDHPYLFDGVEPEPFEVGDHLTEASGKLHLLDKLLAFLYSGGHRVLLFSQMTQMLDILQDYMDYRGYSYERVDGSVRGEERHLAIKNFGQQPIFVFLLSTRAGGVGMNLTAADTVIFVDSDFNPQNDLQAAARAHRIGQNKSVKVIRLIGRDTVEEIVYRKAASKLQLTNMIIEGGHFTLGAQKPAADADLQLSEILKFGLDKLLASEGSTMDEIDLESILGETKDGQWVSDALPAAEGGSRDQEEGKNHMYLFEGKDYSKEPSKEDRKSFEQLVNLQKTLLEKASQEGRSLRNKGSVLIPGLVEGSTKRKRVLSPEELEDRQKKRQEAAAKRRRLIEEKKRQKEEAEHKKKMAWWESNNYQSFCLPSEESEPEDLENGEESSAELDYQDPDATSLKYVSGDVTHPQAGAEDALIVHCVDDSGHWGRGGLFTALEKRSAEPRKIYELAGKMKDLSLGGVLLFPVDDKESRNKGQDLLALIVAQHRDRSNVLSGIKMAALEEGLKKIFLAAKKKKASVHLPRIGHATKGFNWYGTEQLIRKHLAARGIPTYIYYFPRSKS
notes: ALC1 (CHD1L), human, residues 1-880 with R857Q; the mutant was made by mutagenesis; also called R857Q of ALC1; source: E. coli Rosetta (DE3), purified (Ni-NTA, Source-15S, Superdex-200)
B2: single-chain antibody (scFv) against ALC1 used for crystallization (scFv, V domains shown)
VH: QVQLQQSGPGLVRPSQTLSLTCAISGDSVSDNDAAWNWVRQSPSRGLEWLGRTYYRSKWSNEYAVFVQSRITINPDTSKNQFSLHLNSVTPEDTAVYYCARATRPTGNGLDIWGQGTMVTVSS
VL: SYVLTQPPSVSVAPGQTARITCGGNNIGSKSVHWYQQKPGQAPVLVVYDDSDRPSGIPERFSGSNSGNTAALTISRVEAGDEADYYCQVWDSSSDHVVFGGGTKLTVL
notes: human scFv from a non-immunized yeast-display library; One of seven clones; also called the antibody; source: HEK293F, transfected, secreted, purified (Ni-NTA, Superdex 75)

What was measured:
[1] = target: histone H4 (in the nucleosome) (UniProt P62799 2-103); test: cryo-EM structure; R857Q of ALC1 (30 μM) mixed with 167NCP (6 μM), ADP-BeFx, GraFix; single-binding map 2.8 Å; a class with two copies of ALC1 on the nucleosome 3.3 Å; conditions: both partners purified
[2] = target: T1, human ALC1 (residues 1-880) (human, UniProt Q86WJ1); test: crystal structure; ALC1-scFv complex (mixed 1:1.1, purified on Superdex 200), crystallised in the presence of ADP-Mg; 3.5 Å; conditions: both partners purified
T1 construct: ALC1 (CHD1L), human, residues 1-880 cloned from cDNA; the crystallised construct holds the motor domain, the linker region and the macro domain; also called CHD1L; WT; source: E. coli Rosetta (DE3), purified (Ni-NTA, Source-15S, Superdex-200)

| Binder | binding result [1] | binding result [2] |
| --- | --- | --- |
| B1 | binds | – |
| B2 | – | binds |
